B1: Rv1196: Mtb vaccine candidate antigen, tested as peptides (protein, UniProt L7N675 1-391, looked up)
PPE family protein PPE18: MVDFGALPPEINSARMYAGPGSASLVAAAQMWDSVASDLFSAASAFQSVVWGLTVGSWIGSSAGLMVAAASPYVAWMSVTAGQAELTAAQVRVAAAAYETAYGLTVPPPVIAENRAELMILIATNLLGQNTPAIAVNEAEYGEMWAQDAAAMFGYAAATATATATLLPFEEAPEMTSAGGLLEQAAAVEEASDTAAANQLMNNVPQALQQLAQPTQGTTPSSKLGGLWKTVSPHRSPISNMVSMANNHMSMTNSGVSMTNTLSSMLKGFAPAAAAQAVQTAAQNGVRAMSSLGSSLGSSGLGGGVAANLGRAASVGSLSVPQAWAAANQAVTPAARALPLTSLTSAAERGPGQMLGGLPVGQMGARAGGGLSGVLRVPPRPYVMPHSPAAG
modifications: tested as peptides
B2: Rv3615c: Mtb antigen included in the ESAT-6 free IGRA test (protein, UniProt P9WJD7 2-103, looked up)
ESX-1 secretion-associated …: TENLTVQPERLGVLASHHDNAAVDASSGVEAAAGLGESVAITHGPYCSQFNDTLNVYLTAHNALGSSLHTAGVDLAKSLRIAAKIYSEADEAWRKAIDGLFT
B3: Rv0288: Mtb antigen, TB vaccine candidate antigen, tested as peptides (protein, UniProt P9WNK3 1-96, looked up)
ESAT-6-like protein EsxH: MSQIMYNYPAMLGHAGDMAGYAGTLQSLGAEIAVEQAALQSAWQGDTGITYQAWQAQWNQAMEDLVRAYHAMSSTHEANTMAMMARDTAEAAKWGG
modifications: tested as peptides

How the values were obtained:
[1] = system: PBMCs from participants mid-treatment for ATB; test: Proteome-wide peptide library screen: ex vivo IFNγ and IL-17 Fluorospot, positive pools deconvoluted to individual epitopes; type: cell-based, human; conditions: n=21
[2] = system: PBMCs from ATB participants; test: Fluorospot screen of 517 overlapping 15-mer peptides spanning TB vaccine candidate and IGRA antigens; type: cell-based, human; conditions: overlapping 15-mers; IGRA+ data from previous study

| Molecule | antigen recognition in the proteome-wide screen [1] | antigen recognition in ATB (n=21) compared with healthy IGRA+ participants (n=63) [2] |
| --- | --- | --- |
| Rv3874: Mtb IGRA antigen, tested as peptides | most frequently recognized | most frequently recognized |
| B1 |  | most frequently recognized |
| B2 | most frequently recognized |  |
| B3 | most frequently recognized | most frequently recognized |
